Four molecules from publication PMC10397247 can be followed below.

The target in one assay is T1, 4H3094-AA.
T1 chain: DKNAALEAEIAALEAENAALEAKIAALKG
Nature of the assay: two-hybrid library CCmax.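 Further: natural log of median RNA to DNA barcode read ratio; higher means stronger binding.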

A further assay addresses T2, 4H324-AA.
T2 chain: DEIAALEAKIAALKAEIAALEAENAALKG
The assay can be described thus: two-hybrid library CCmax.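 Further: natural log of median RNA to DNA barcode read ratio; higher means stronger binding.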 The following applies: mean of both orientations.

The target of the next assay is T3, 4H341-AA.
T3 chain: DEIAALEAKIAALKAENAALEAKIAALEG
The assay can be described thus: two-hybrid library CCmax.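 Further: natural log of median RNA to DNA barcode read ratio; higher means stronger binding.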

The target in the next assay is T4, 4H3449-AA.
T4 chain: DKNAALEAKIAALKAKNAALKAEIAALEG
Nature of the assay: two-hybrid library CCmax.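 Further: natural log of median RNA to DNA barcode read ratio; higher means stronger binding.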 The note with it: mean of both orientations.

The target in a further assay is T5, 4H3619-AA.
T5 chain: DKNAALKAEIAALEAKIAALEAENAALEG
Nature of the assay: two-hybrid library CCmax. The note with it: mean of both orientations.

For another assay, the target named is T6, 4H3629-AA.
T6 chain: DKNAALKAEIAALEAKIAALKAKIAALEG
The assay can be described thus: two-hybrid library CCmax. The following applies: mean of both orientations.

The target of a further assay is T7, 4H3777-AA.
T7 chain: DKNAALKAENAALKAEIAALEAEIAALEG
Nature of the assay: two-hybrid library CCmax. The note with it: mean of both orientations.

The target in another assay is T8, 4H380-AA.
T8 chain: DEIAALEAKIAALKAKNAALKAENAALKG
Nature of the assay: two-hybrid library CCmax. The note with it: mean of both orientations.

Another assay addresses T9, 4H3915-AA.
T9 chain: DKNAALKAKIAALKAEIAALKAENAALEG
Nature of the assay: two-hybrid library CCmax.

The target of another assay is T10, 4H3974-AA.
T10 chain: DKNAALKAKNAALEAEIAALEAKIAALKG
Nature of the assay: two-hybrid library CCmax. The note with it: mean of both orientations.

The target of the next assay is T11, 4H432-AA.
T11 chain: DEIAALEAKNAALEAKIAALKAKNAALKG
Nature of the assay: two-hybrid library CCmax. The note with it: mean of both orientations.

The next assay deals with T12, 4H446-AA.
T12 chain: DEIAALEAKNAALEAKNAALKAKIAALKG
Nature of the assay: two-hybrid library CCmax. The note with it: mean of both orientations.

The target in the next assay is T13, 4H63-AA.
T13 chain: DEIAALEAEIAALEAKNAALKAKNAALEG
The assay can be described thus: two-hybrid library CCmax. The following applies: mean of both orientations.

A further assay addresses T14, 4H3414-AA.
T14 chain: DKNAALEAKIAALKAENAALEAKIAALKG
Nature of the assay: two-hybrid library CCmax.

The next assay concerns the target T15, 4H3595-AA.
T15 chain: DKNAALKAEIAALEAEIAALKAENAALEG
The assay can be described thus: two-hybrid library CCmax. The note with it: mean of both orientations.

Another assay addresses T16, 4H3782-AA.
T16 chain: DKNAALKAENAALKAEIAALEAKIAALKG
Nature of the assay: two-hybrid library CCmax. The note with it: mean of both orientations.

For the next assay, the target named is T17, 4H3939-AA.
T17 chain: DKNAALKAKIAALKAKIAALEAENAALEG
The assay can be described thus: two-hybrid library CCmax. The note with it: mean of both orientations.

Another assay has as its target T18, 4H3969-AA.
T18 chain: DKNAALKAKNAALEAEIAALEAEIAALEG
The assay can be described thus: two-hybrid library CCmax.

Another assay deals with T19, 4H464-AA.
T19 chain: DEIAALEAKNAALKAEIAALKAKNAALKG
Nature of the assay: two-hybrid library CCmax. The following applies: mean of both orientations.

A further assay has as its target T20, 4H483-AA.
T20 chain: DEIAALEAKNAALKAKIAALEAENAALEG
The assay can be described thus: two-hybrid library CCmax. The following applies: mean of both orientations.

Another assay has as its target T21, 4H492-bH.
T21 chain: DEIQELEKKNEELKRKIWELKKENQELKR
Nature of the assay: two-hybrid library CCNG1.

Another assay has as its target T22, 4H741-bH.
T22 chain: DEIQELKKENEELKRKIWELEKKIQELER
Nature of the assay: two-hybrid library CCNG1.

Like-named read-outs stand apart in the source and are kept apart here.

With DKNAALEAEIAALEAENAALEAKIAALKG [4H3094-AA], the interaction score with 4H3094-AA is -0.802; with 4H324-AA it was -0.623; in the assay with 4H341-AA (mean of both orientations), 1.64; with 4H3449-AA it was 2.52; in the assay with 4H3619-AA it was -1.6; with 4H3629-AA it was -0.24. Besides, the interaction score with 4H3777-AA is -0.696; with 4H380-AA, 1.51; in the assay with 4H3915-AA it was -0.623; with 4H3974-AA, -0.861; with 4H432-AA it was 0.441; with 4H446-AA, -0.811. The same molecule showed an interaction score with 4H63-AA of -0.753.

On to DEIAALEAKIAALKAENAALEAKIAALEG [4H341-AA], for which the interaction score in the assay with 4H341-AA was 1.84; with 4H3414-AA (mean of both orientations), 0.22; in the assay with 4H3449-AA, 0.461; with 4H3595-AA it was -1.29; with 4H3619-AA it was -1.22; with 4H3629-AA, 2.2. Further, the interaction score in the assay with 4H3777-AA is -1.17; in the assay with 4H3782-AA it was 0.558; with 4H380-AA, -1.07; with 4H3915-AA (mean of both orientations), -1.31; with 4H3939-AA, -1.29; in the assay with 4H3969-AA it was 0.0125. In addition, the interaction score in the assay with 4H3974-AA was 0.589; with 4H432-AA, -1.21; in the assay with 4H446-AA, 0.795; with 4H464-AA it was 0.352; in the assay with 4H483-AA it was 0.738; in the assay with 4H63-AA, 1.74.

Turning to DEIQELEKKNEELKRKIWELKKENQELKR [4H492-bH], the interaction score was 0.6 with 4H492-bH and -0.317 in the assay with 4H741-bH.

On to DKNAALEAKIAALKAENAALEAKIAALKG [4H3414-AA], for which the interaction score was -0.215 in the assay with 4H3414-AA; -1.09 with 4H3595-AA; 0.922 with 4H3629-AA; -1.23 with 4H3782-AA; -0.842 with 4H380-AA; -1.42 in the assay with 4H3939-AA. In addition, the interaction score with 4H3969-AA (mean of both orientations) was -1.31; with 4H446-AA, -0.818; with 4H464-AA, 1.47; with 4H483-AA it was 0.796; in the assay with 4H63-AA, -0.187.
